Reference: patent US20160304621A1

How the values were obtained:
[1] = biological target: recombinant human HER2 protein HER2-ECD with His-tag (human) (UniProt P04626); assay: ELISA on coated HER2-ECD, 11-point dilution from 1000 ng/ml
[2] = biological target: recombinant human HER2 protein HER2-ECD with His-tag (human) (UniProt P04626); assay: ELISA on coated HER2-ECD, average of 3 independent assays, single site fit

Sequence of RC48-vc-MMAF (VH): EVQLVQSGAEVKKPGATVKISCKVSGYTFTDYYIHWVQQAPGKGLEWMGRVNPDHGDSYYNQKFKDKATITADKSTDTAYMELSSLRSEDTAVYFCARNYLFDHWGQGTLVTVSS
Sequence of RC48-vc-MMAF (VL): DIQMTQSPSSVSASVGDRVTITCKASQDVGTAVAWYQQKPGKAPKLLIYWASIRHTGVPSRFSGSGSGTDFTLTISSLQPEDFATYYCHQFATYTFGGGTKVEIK
Sequence of RC48-vc-MMAE (VH): as the sequence (VH) above
Sequence of RC48-vc-MMAE (VL): as the sequence (VL) above
Sequence of humanized anti-HER2 antibody RC48 (VH): as the sequence (VH) above
Sequence of humanized anti-HER2 antibody RC48 (VL): as the sequence (VL) above

| Affinity [1] | Molar equivalent [1] | Kd [2] | Substance |
| --- | --- | --- | --- |
| 2.24 ng/mL | 15.2 pmol/L | – | RC48-vc-MMAE |
| 3.35 ng/mL | 13.5 pmol/L | – | RC48-vc-MMAF |
| – | – | 0.077 nM | human-murine chimeric antibody cRC48 |
| – | – | 0.044 nM | humanized anti-HER2 antibody RC48 |
